Test results: article doi:10.1101/2020.01.08.898262 (bioRxiv, 2020)

Biological target: the molecule itself
Assay: crystal structure

B1: Salmonella typhi outer membrane phospholipase A (OmpLA), leaderless (21Q-289F) (enzyme)
chain: QEATIKEVHDAPAVRGSIIANMLQEHDNPFTLYPYDTNYLIYTNTSDLNKEAISTYNWSENARKDEVKFQLSLAFPLWRGILGPNSVLGASYTQKSWWQLSNSKESSPFRETNYEPQLFLGFATDYRFAGWTLRDVEMGYNHDSNGRSDPTSRSWNRLYTRLMAENGNWLVEVKPWYVIGSTDDNPDITKYMGYYQLKIGYHLGEAVLSAKGQYNWNTGYGGAEVGLSYPVTKHVRLYTQVYSGYGESLIDYNFNQTRVGVGVMLNDIF
binding result: binds
